Data: US20230126689A1 (GO THERAPEUTICS, published 2023)
Ends that are not written are not given here. * marks the point of attachment. αGalNAc = CC(=O)N[C@@H]1[C@@H](O)[C@@H](O)[C@@H](CO)O[C@@H]1*

B1: 10H4 monoclonal antibody (antibody, V domains shown)
VH: QSLEESGGRLVTPGTPLTLTCTASGFTINTYHMGWFRQAPGKGLQYIGIVSHDVGTYYATWAKGRFTISKTSSTTVDLRMPSPTTEDTATYICARGPGYWTFNLWGQGTLVTVSS
VL: AQVLTQTPASVSAAVGGTVTINCQASQSVYNNNQLSWYQQKPGQPLKQLIYKASTLASGVPSRFKGSGSGSQFTLTISDLECDDAATYFCAGGYKGDIHPFGGGTEVVVK
notes: Rabbit antibody
B2: 4C8 monoclonal antibody (antibody, V domains shown)
VH: QVQLQQPGSELVRPGASVKLSCKASGYTFTSYWMHWVKQRPGQGLEWIGNIYPRSGTTNYDGYFKSKATLTVDTSSSTAYMQLSSLTSEDSAVYFCTRSGYDYPFVYWGQGTLVTVSA
VL: QAVVTQESALTTSPGETVTLTCRTSTGAVSIRNYANWVQEKPDHLFTGLIGGTNNRAPGVPARFSGSLIGDKAALTITGAQPEDEAIYFCALLYSNYWVFGGGTKLTVL
notes: Murine hybridoma antibody from Balb/c mice immunised with the KLH-conjugated CD44v6 glycopeptide; It was detected with anti-mouse IgG Fc-gamma, and used as purified mAb or as hybridoma supernatant; also called 4C8 mAb; mAb 4C8
B3: 2B2 monoclonal antibody (antibody, V domains shown)
VH: EVQLVESGGGLVKPGGSLKLSCAASGFTFSSYAMSWVRQSPERRLEWVAEISSGGSYTYYPDTVTGRFTISRDNAKNTLYLEMSSLRSEDTAMYYCARTVGEDWYFDVWGAGTTVTVSS
VL: DIQMTQTTSSLSASLGDRVTISCRASQDISHYLNWYQQKPDGAVKLLIYSTSRLHSGVPSRFSGSGSGTDYSLTISNLEQEDIATYFCQQGYTLPFTFGSGTKLEIK
notes: Murine hybridoma antibody
B4: 18G9 monoclonal antibody (antibody, V domains shown)
VH: DVQLVESGGGLVQPGGSRKLSCAASGFTFSSFGMHWVRQAPEKGLEWVAYISSGSSTIYYADTVKGRFTISRDNPKNTLFLQMTSLRSEDTAMYYCARGSYRAMDYWGQGTSVTVSS
VL: QIVLTQSPALMSASPGEKVTMTCSASSSVNYMFWYQQKPRSSPKPWIYLTSNLASGVPARFSGSGSGTSYSLTISSMEAEDAATYYCQLWSSNPFTFGSGTKLEIK
notes: Murine hybridoma antibody
B5: 1D12 monoclonal antibody (antibody, V domains shown)
VH: DVQLVESGGGLVQPGGSRKLSCAASGFTFSSFGIHWVRQAPEKGLEWVAYISSGSSTIYYADTVKGRFTISRDNPKNTLFLQMTSLRSEDTAMYYCARGSKVVAKSRGYWYFDVWGAGTTVTVSS
VL: DVVVTQTPLFLPVSFGDQVSISCRSSQSLANNYGITYLSWYLHRPGQSPQLLIYGISNRFSGVPDRFSGSGSGTDFTLKISTIKPEDLGMYYCLQGTHQPWTFGGGTKLEIK
notes: Murine hybridoma antibody

Tests used:
[1] = molecular target: T1, CD44v6 glycopeptide … with O-linked GalNAc on threonine 5 and serine 12 (human, not fully specified (residue 12)); assay: hybridoma screening (ELISA, flow cytometry, immunofluorescence)
T1 construct: Synthetic 19-residue glycopeptide made by FMOC synthesis; also called CD44v6-Tn(S + T); Tn-glycosylated CD44v6 glycopeptide
T1 peptide: GYRQT(αGalNAc)PKEDSHSTTGTAAA

[2] = molecular target: T2, CD44v6 peptide glycoform CD44v6-Tn(S) (human, not fully specified (residue 12); also: GalNAc (Tn) on serine only, position not given here); assay: BLI (Octet); Octet; Tn(S) glycoform
T2 construct: That the serine is Ser 12 is inferred from the two-site glycopeptide
T2 peptide: GYRQTPKEDSHSTTGTAAA

[3] = molecular target: T3, Tn-glycosylated MUC1 (UniProt P15941 138-197, limits assumed, Tn (GalNAc) glycosylated; sites not stated for the material used); assay: Biacore (surface plasmon resonance); row MUC1-Tn, column Affinity (Biacore)
T3 construct: also called MUC1-Tn
T3 sequence (P15941 138-197 limits assumed): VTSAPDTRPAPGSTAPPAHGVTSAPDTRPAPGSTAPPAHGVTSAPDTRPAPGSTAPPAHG

[4] = molecular target: T1, CD44v6 glycopeptide … with O-linked …; assay: BLI (Octet), apparent affinity with avidity factored in
[5] = molecular target: T1, CD44v6 glycopeptide … with O-linked …; assay: SPR (Biacore); Biacore, not Octet

Binder | binding result [1] | other results
B1 | binds | –
B2 | – | Kd [2]: 6.4 nM; Kd [3]: > 400 nM; Kd [4]: 7.9 nM; Kd [5]: 128 nM
B3 | binds | –
B4 | binds | –
B5 | binds | –
